Data taken from article PMC12670994.
Where “and” joins values, the source holds several entries; their conditions need not be identical. Equal values may be shown once.

Legend:
[1] = molecular target: SARS-CoV-2 spike on Omicron pseudovirus (GFP-expressing) (SARS-CoV-2 Omicron) (UniProt P0DTC2); experiment: flow cytometry, bead-bound aptamer; details: 5' hexynyl-iSp18-iSp18-iSp18 (PEG spacer)
[2] = molecular target: SARS-CoV-2 spike on Omicron pseudovirus (GFP-expressing) (SARS-CoV-2 Omicron) (UniProt P0DTC2); experiment: flow cytometry, bead-bound aptamer

Row | Sequence | Kd [1] | Kd ([2]; 5' hexynyl-iSp18-iSp18-iSp18 (PEG spacer)) [pM] | Kd ([2]; 5' hexynyl) [pM]
1 | ATCCAGAGTGACGCAGCACCGACCTTGTGCTTTGGGAGTGCTGGTCCAAGGGCGTTAATGGACACGGTGGCTTAGT [Omicron PEG36 Particle Aptamer] | 0.011 pM and 0.017 pM and 0.073 pM | 0.007 | 
2 | TTTTTATCCAGAGTGACGCAGCACCGACCTTGTGCTTTGGGAGTGCTGGTCCAAGGGCGTTAATGGACACGGTGGCTTAGT [Omicron Particle Aptamer] |  |  | 0.01
